In patent US20190077849A1:
Where “and” joins values, the source holds several entries; their conditions need not be identical. Equal entries are not always repeated.

Columns and labels:
Assay in all cases: cell-based or functional assay
[1] = molecular target: HIV-1 Env of ZM106.9.SG3 pseudovirus (clade C) (HIV-1)
[2] = molecular target: HIV-1 Env of YU2.DG.SG3 pseudovirus (clade B) (HIV-1) (UniProt P35961)
[3] = molecular target: HIV-1 Env of TH966.8.SG3 pseudovirus (clade AE) (HIV-1)
[4] = molecular target: HIV-1 Env of KER2008.12.SG3 pseudovirus (clade A) (HIV-1)
[5] = molecular target: HIV-1 Env of 6101.10.SG3 pseudovirus (clade B) (HIV-1)
[6] = molecular target: HIV-1 Env of ZM215.8.SG3 pseudovirus (clade C) (HIV-1)
[7] = molecular target: HIV-1 Env of CNE31.SG3 pseudovirus (clade C) (HIV-1)
[8] = molecular target: HIV-1 Env of PVO.04.SG3 pseudovirus (clade B) (HIV-1)
[9] = molecular target: HIV-1 Env of 6095.V1.C10.SG3 pseudovirus (clade ACD) (HIV-1)

Row | Substance | IC50, pseudovirus neutralization [1] | IC50, pseudovirus neutralization [2] | IC50, pseudovirus neutralization [3] | IC50, pseudovirus neutralization [4] | IC50, pseudovirus neutralization [5] | IC50, pseudovirus neutralization [6] | IC50, pseudovirus neutralization [7] | IC50, pseudovirus neutralization [8] | IC50, pseudovirus neutralization [9]
1 | 10E8v4 VL Y32A (antibody) | > 50 µg/mL | > 50 µg/mL | 3.53 µg/mL | > 50 µg/mL | > 50 µg/mL | 11.7 µg/mL | > 50 µg/mL | > 50 µg/mL | 0.409 µg/mL
2 | 10E8v4 VL Y32V (antibody) | > 50 µg/mL | > 50 µg/mL | 4.96 µg/mL | > 50 µg/mL | > 50 µg/mL | 28.2 µg/mL | > 50 µg/mL | > 50 µg/mL | 0.558 µg/mL
3 | 10E8 antibody | > 50 µg/mL | – | 0.032 µg/mL and 0.023 µg/mL | > 50 µg/mL | – | – | 1.19 µg/mL and 0.995 µg/mL | 2.09 µg/mL and 0.997 µg/mL | –
4 | 10E8v4 VL Y32Q (antibody) | > 50 µg/mL | > 50 µg/mL | 11.5 µg/mL | > 50 µg/mL | > 50 µg/mL | > 50 µg/mL | > 50 µg/mL | > 50 µg/mL | 0.281 µg/mL
5 | 10E8v4 VL Y32T (antibody) | > 50 µg/mL | 43.5 µg/mL | 3.76 µg/mL | > 50 µg/mL | > 50 µg/mL | 9.25 µg/mL | > 50 µg/mL | > 50 µg/mL | 0.145 µg/mL
6 | 10E8v4 VL Y32I (antibody) | > 50 µg/mL | > 50 µg/mL | 21.4 µg/mL | > 50 µg/mL | > 50 µg/mL | > 50 µg/mL | > 50 µg/mL | > 50 µg/mL | 1.3 µg/mL
7 | 10E8v4 VL Y32D (antibody) | > 50 µg/mL | > 50 µg/mL | > 50 µg/mL | > 50 µg/mL | > 50 µg/mL | > 50 µg/mL | > 50 µg/mL | > 50 µg/mL | 1.55 µg/mL
8 | 10E8v4 VL Y32K (antibody) | > 50 µg/mL | > 50 µg/mL | 10.2 µg/mL | > 50 µg/mL | > 50 µg/mL | 33 µg/mL | > 50 µg/mL | > 50 µg/mL | 0.359 µg/mL
9 | 10E8v4 VL Y32R (antibody) | > 50 µg/mL | > 50 µg/mL | 4.08 µg/mL | > 50 µg/mL | > 50 µg/mL | 7.52 µg/mL | > 50 µg/mL | > 50 µg/mL | 0.152 µg/mL
10 | 10E8v4 VL Y32N (antibody) | > 50 µg/mL | > 50 µg/mL | > 50 µg/mL | > 50 µg/mL | > 50 µg/mL | > 50 µg/mL | > 50 µg/mL | > 50 µg/mL | 2.92 µg/mL
